Experimental data reported in the supplement of paper PMC12764529.
± gives the half width of the 95% confidence interval.

What was measured:
[1] = folding stability dG unfold (combined trypsin and chymotrypsin); higher = more stable
Summary of the method: (§1)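 Designed mini-proteins with no cysteine and under 80 residues were kept only if AlphaFold2 dimer inter-PAE was above 15. In a PA-tagged cDNA display construct, they were digested with trypsin and chymotrypsin and then sequenced. K50 was inferred by Bayesian fitting of counts, and unfolding free energy was derived per protease or combined against a sequence-predicted unfolded-state K50 and a shared folded-state K50.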

[2] = folding stability dG unfold from chymotrypsin proteolysis; higher = more stable
Summary of the method: as §1

[3] = folding stability dG unfold from trypsin proteolysis; higher = more stable
Summary of the method: as §1

| Sequence | folding stability dG unfold [1] [kcal/mol] | folding stability dG unfold [2] [kcal/mol] | folding stability dG unfold [3] [kcal/mol] |
| --- | --- | --- | --- |
| SAGGSAGGSAGGMFYIKNEKGEVFPFTSLEEFLKQLEEKTGKPVKLNNIVIYPAAPHSLSAGGSAGGSAGGS [r10_62_TrMRF] | 1.7 ± 0.27 | 1.81 ± 0.15 | 1.04 ± 0.042 |
| SAGGITVEVEYERTEGGYYRVTVTLRDPDGNPIEIEYPMPPGDPGMTQDEMKDKAVEWALKIAQELNSAGGS [r8_123_TrROS] | 3.96 ± 0.088 | 3.971 ± 0.031 | 3.94 ± 0.12 |
| SAGGSAGGSMPGETVTLNVKTTVEVTTTLSSPSGSPFPVSVTREVTIPITVSSEELKKGLITLESAGGSAGG [r6_138_JUSTAS] | 0.229 ± 0.13 | 0.291 ± 0.15 | -0.473 ± 0.2 |
| SAGGKPPKTVTVTLTLPDGVKITIEYNEETGEVTVTIEVFKDGKLVKTITITAPSLDEALEALKKLLSAGGS [r16_55_TrROS_Hall] | 3.87 ± 0.13 | 4.19 ± 0.18 | 3.25 ± 0.23 |
| SVPIALPGVPPGFSLEEVAALITEKIKALGYTLKDIKVTPHPDNTVTITITVEKGEKTVKKVTTEINPPVSA [r9_953_JUSTAS] | 2.56 ± 0.36 | 2.95 ± 0.097 | 1.56 ± 0.15 |
| SAGGPGEEYKHPNGMAMRRDPENGKVEMRKVPPIPIEIKIEIDPALGWIRLSITIPNGKKIEFTFPFSAGGS [r16_453_TrROS] | 3.32 ± 0.2 | 4.11 ± 0.32 | 2.36 ± 0.052 |
| SKYVQVRFPNYTIMVKKRKSPNGKPEVEVMLYNPPNGKMIPVEVKSPEDAEEAVKDAIRAMFPDEELRDLSA [r9_749_TrROS] | 0.687 ± 0.17 | 0.46 ± 0.47 | 0.827 ± 0.09 |
| SAMNTRTVTLTIERPPGSPETLEAVRARLAALGFTVTSESEEVLPDESLTRVTLTVEDPGVPETLLALLSAG [r14_956_JUSTAS] | 1.91 ± 0.06 | 2.03 ± 0.057 | 1.65 ± 0.021 |
| SAGGSAGGSAGGGKVTAVVTFTGPDGSKVVLAFHPDGSVTVRYFDPNGELVGEKTFAGAGSAGGSAGGSAGG [r7_544_TrMRF] | 4.27 ± 0.14 | 4.56 ± 0.1 | 3.2 ± 0.19 |
| SAGGSMADPGKAKAKVVIGGVEFEFDTTVTVADDPDGRKVLIFTFPDGTPVEIPLEDAEKILEVEGSAGGSA [r2_297_TrMRF] | 1.43 ± 0.067 | 1.66 ± 0.03 | 0.996 ± 0.024 |
| SAGGSAGGSAGGMTIPLEFEFPDGRRLRITYHIEPSEDGLKITAEVEIEPIPEPPLPSDSAGGSAGGSAGGS [r10_1200_TrMRF] | 3.31 ± 0.26 | 3.64 ± 0.13 | 1.93 ± 0.14 |
| SAGGSAGGGKVLLEIYVPSEVPSVEELVEKLESEGFEVVKVESVPEGDYVRILVEKDVPPESIESAGGSAGG [r6_601_TrMRF] | 1.57 ± 0.11 | 1.71 ± 0.15 | 1.28 ± 0.066 |
| SAMKIYTLPDGSRLIVIPDPYSDSLSVLLVTRSPDGTYHVTLIRYHPNGEKETFTRTGDLETAIRELLSSAG [r14_179_TrMRF] | 3.67 ± 0.091 | 3.588 ± 0.028 | 3.55 ± 0.077 |
| SAGGSAGGKKKTIVIKADSLEELKAALEALPEKVEVRLPNGETITLEVDGKKVEIKVISPEELKSAGGSAGG [r6_641_TrROS_Hall] | 0.753 ± 0.14 | 0.959 ± 0.048 | 0.448 ± 0.039 |
| SAGGSALKIHPDEKVLVKLKNTKKPVEAKVVKVEKLPNNKWVFYVEVKLNGKKVKIPVDGKDVVVASAGGSA [r15_62_TrMRF] | 2.45 ± 0.23 | 2.38 ± 0.07 | 2.55 ± 0.2 |
| SAGGKEIYKVNKKDFKKILDYLKKKKNAKITIIIKNKPIEIPIKDLEENYKKIKGKPNEPFYLEIEYSAGGS [r16_377_TrMRF] | 2.14 ± 0.077 | 2.28 ± 0.034 | 1.75 ± 0.087 |
| SAGGSAGGMEVVERVVKLPDGTELRITIERDPEKDTAKVTITDPTTSETRTLDVTSEEEALELLSAGGSAGG [r6_465_JUSTAS] | 1.93 ± 0.037 | 1.56 ± 0.032 | 2.31 ± 0.068 |
| SAGGSAGGSAGGMVLVETEPLPDGGYRVLVVFPGTDEVRELYFSSSTTPEQVLDVVLAESAGGSAGGSAGGS [r10_825_TrMRF] | 2.34 ± 0.083 | 2.233 ± 0.021 | 2.44 ± 0.059 |
| MALPERLRELTPPVPPELALEAALKRAEELGLEEVREVRVLSVTPDGYIEVEIELPEGGSVRIRIPLEDLFS [r1_435_TrMRF] | 1.15 ± 0.12 | 0.608 ± 0.18 | 1.51 ± 0.071 |
| SAGGSAMYEVRIKIKKDGKEVEIELSLEELEELLESPELREELEIVEIEVRPLPPEELSEEELKALSAGGSA [r15_460_TrROS_Hall] | 1.06 ± 0.058 | 0.836 ± 0.045 | 1.18 ± 0.028 |
| SAMKVEPFTFKVTFKVPVLNPETGEATEEGVEAEVVVYRSDDGTLYVVAFVKFENGKTAVFPFTIDKDGSAG [r14_50_TrMRF] | 3.59 ± 0.064 | 3.781 ± 0.029 | 3.19 ± 0.1 |

| Sequence | folding stability dG unfold [1] [kcal/mol] | folding stability dG unfold [2] [kcal/mol] | folding stability dG unfold [3] [kcal/mol] |
| --- | --- | --- | --- |
| SAGGSGKIKEAVEAAIENPGKTVEVTVERPDGYPVKIKVDPKTGKITLEVIHPDGTTSRKEFEIKPSAGGSA [r2_263_TrMRF] | 0.83 ± 0.17 | 0.669 ± 0.046 | 0.807 ± 0.071 |
| SAMEALEEAGFEVVEVEEVEERELPDGKRLVRLRITVRRDGKLVELEIVVPEENEEEALRAALELLREESAG [r14_726_TrROS_Hall] | 4.44 ± 0.11 | 4.4 ± 0.099 | 4.49 ± 0.18 |
| SAGMQLLPSATVTLTNPKTGETTTVSVQALRDELAARRGTTDPAAITEADIEAWAKEQGYDPITFTLPSAGG [r19_67_JUSTAS] | 2.78 ± 0.076 | 2.55 ± 0.027 | 2.96 ± 0.069 |
| SAGGPDLVPVARAVYRIDVPPDRTAEEVRREIEERLRPLGVRRVVVPVFYDPERGYLLVVAEVYRSPEESAG [r5_924_TrMRF] | 2.06 ± 0.081 | 2.17 ± 0.1 | 1.82 ± 0.036 |
| SMKVTVSVTYNPETQTLELRFTVYERDPNGNWVPTASFPITLPVTIPAPPVPVVEVPEDATLPEDVALADSA [r9_888_TrMRF] | 4.99 ± 0.33 | 5.14 ± 0.21 | 3.64 ± 0.18 |
| SAGGSAGGSAGSETYYIKIGDKLYTVTVEPDSITVKYPETSEEKTFSSSLPGISLEEILSSAGGSAGGSAGG [r11_648_JUSTAS] | 1.71 ± 0.065 | 1.68 ± 0.054 | 1.63 ± 0.041 |
| SAGMYSETLLEEREYPDGTKEKLYRITKPGGVEELRLVREPLTFDPNNGGPGRKEEVKTAKPDEEIELESAG [r5_122_JUSTAS] | 1.03 ± 0.1 | 1.12 ± 0.14 | 0.721 ± 0.026 |
| SAGGSAGGSAGDKRITIWFPVPPGQPPPTLEEIADELPGFEDVDIDVEMYPNGYYRITIESAGGSAGGSAGG [r17_205_TrROS] | 0.966 ± 0.078 | 1.05 ± 0.14 | 0.812 ± 0.047 |
| SMKPYVYTHPEGITIPMFVLPDGTIKIEVTAFDPNNPVPLGKATATMDPATGTLNLTLPNGTSLSYTIPASA [r9_56_JUSTAS] | 2.5 ± 0.16 | 2.46 ± 0.1 | 2.45 ± 0.065 |
| SAGGSAGGSAGGSGMITVTIEREYTSYVTFPGGTLEPVLLKTTVTATLPPGVPVEEFLSSAGGSAGGSAGGS [r4_126_JUSTAS] | 1.54 ± 0.11 | 1.37 ± 0.12 | 1.65 ± 0.058 |
| SAGGSPGIKIEIWFMIMFPVKPDPDNGKPRWYMIMVSPKMWYDPEPGGMQIEIDINIMPLGDPEAFSAGGSA [r2_489_TrROS] | 3.41 ± 0.21 | 3.6 ± 0.038 | 3.2 ± 0.16 |
| SAGGSAGGSANFKILAVEVQPAGNGIMVRAIIEFPDGWIIKFSFWFRNDGIKINIEIVPLDDSAGGSAGGSA [r18_79_TrROS] | 5.68 ± 0.17 | 5.7 ± 0.12 | 4.7 ± 0.15 |
| SAGGMQKAIDIAKELGWKILDVDPEKKVVKVKPPDSDVEVTITVDDESTVTITTKNPGSDVVETIPESAGGS [r16_197_JUSTAS] | 1.4 ± 0.16 | 1.47 ± 0.056 | 1.38 ± 0.091 |
| SAGGSDKEHDVEIKINIYVHDDGYIHIDIEVYNPGSPRPIMKFTIHIPAKDMQKKTGRPMTLEDILSAGGSA [r2_180_TrROS] | 2.38 ± 0.2 | 2.75 ± 0.074 | 1.73 ± 0.16 |
| SAGGSAGGSPSVPPEWKVEIVEVTVHPDGSTVTAVIRFEDGSTVTVNSPEALARLVEGGNVVNSAGGSAGGS [r12_455_TrMRF] | 1.51 ± 0.14 | 1.62 ± 0.11 | 1.12 ± 0.047 |
| SAGGSAGGSAGKIKITEIHFMPNGMVVVEIEFEDPDGETFNLTVVFRFDPNGKIRDIHIMSAGGSAGGSAGG [r11_709_TrROS] | 4.22 ± 0.17 | 4.35 ± 0.07 | 3.35 ± 0.15 |
| SAGMDIELVVPIESPGSPEEIEKTVEELKEKLEKLGYKVEVSREIHPVGDKLVATITIKITAPPDLPLLSAG [r5_217_JUSTAS] | 2.85 ± 0.16 | 2.31 ± 0.095 | 3.49 ± 0.28 |
| SAGGSAGGSAPPGQEFPFEPVEEESIPIYDPDNGEPPLTISVWKMRMPGGPPMTFIMISPMSAGGSAGGSAG [r3_166_TrROS] | 2.17 ± 0.069 | 2.32 ± 0.043 | 1.92 ± 0.034 |
| APARPPDWVLVDVPVDPTSGLITVHAGDATVTVDLPDGRPAVFYFPRSVSPSDLLAWVVGKARELAEALRAS [r1_25_TrMRF] | 2.23 ± 0.16 | 2.32 ± 0.19 | 1.9 ± 0.085 |
| SAGGSAGGSKKIMIPGSPDTAFSTIKEWIRNGHEVPIYYYSPGNPEPVAEQEITIDEEENDELSAGGSAGGS [r12_241_TrROS] | -0.309 ± 0.2 | -0.183 ± 0.21 | -0.683 ± 0.3 |
| SAGGSAKTIEITLEDGSKVTITEVKDGYIRIYVSEEAKEALKKLGLEEVDEENNVITLPLEKLKKLSAGGSA [r15_984_TrROS_Hall] | 1.62 ± 0.1 | 1.86 ± 0.045 | 1.22 ± 0.052 |
